Values belong to the molecule of their own block, whether it stands above or below them.
Key:
[1] = target: mouse αvβ5 integrin (mouse, UniProt P43406 31-1044; O70309 24-798); experiment: cell-based or functional assay
[2] = target: human αvβ5 integrin (human, UniProt P06756 31-1048; P18084 24-799); experiment: cell-based or functional assay
[3] = target: T1, human αvβ3 integrin (human, UniProt P06756 31-1048; P05106 27-788); experiment: cell-based or functional assay
[4] = target: mouse αvβ3 integrin (mouse) (UniProt P43406); experiment: cell-based or functional assay
[5] = target: T1, human αvβ3 integrin; experiment: co-immunoprecipitation from MDA-MB-231 cells, blot for β3 subunit

T1 sequence (P06756 31-1048, chain 1 of 2): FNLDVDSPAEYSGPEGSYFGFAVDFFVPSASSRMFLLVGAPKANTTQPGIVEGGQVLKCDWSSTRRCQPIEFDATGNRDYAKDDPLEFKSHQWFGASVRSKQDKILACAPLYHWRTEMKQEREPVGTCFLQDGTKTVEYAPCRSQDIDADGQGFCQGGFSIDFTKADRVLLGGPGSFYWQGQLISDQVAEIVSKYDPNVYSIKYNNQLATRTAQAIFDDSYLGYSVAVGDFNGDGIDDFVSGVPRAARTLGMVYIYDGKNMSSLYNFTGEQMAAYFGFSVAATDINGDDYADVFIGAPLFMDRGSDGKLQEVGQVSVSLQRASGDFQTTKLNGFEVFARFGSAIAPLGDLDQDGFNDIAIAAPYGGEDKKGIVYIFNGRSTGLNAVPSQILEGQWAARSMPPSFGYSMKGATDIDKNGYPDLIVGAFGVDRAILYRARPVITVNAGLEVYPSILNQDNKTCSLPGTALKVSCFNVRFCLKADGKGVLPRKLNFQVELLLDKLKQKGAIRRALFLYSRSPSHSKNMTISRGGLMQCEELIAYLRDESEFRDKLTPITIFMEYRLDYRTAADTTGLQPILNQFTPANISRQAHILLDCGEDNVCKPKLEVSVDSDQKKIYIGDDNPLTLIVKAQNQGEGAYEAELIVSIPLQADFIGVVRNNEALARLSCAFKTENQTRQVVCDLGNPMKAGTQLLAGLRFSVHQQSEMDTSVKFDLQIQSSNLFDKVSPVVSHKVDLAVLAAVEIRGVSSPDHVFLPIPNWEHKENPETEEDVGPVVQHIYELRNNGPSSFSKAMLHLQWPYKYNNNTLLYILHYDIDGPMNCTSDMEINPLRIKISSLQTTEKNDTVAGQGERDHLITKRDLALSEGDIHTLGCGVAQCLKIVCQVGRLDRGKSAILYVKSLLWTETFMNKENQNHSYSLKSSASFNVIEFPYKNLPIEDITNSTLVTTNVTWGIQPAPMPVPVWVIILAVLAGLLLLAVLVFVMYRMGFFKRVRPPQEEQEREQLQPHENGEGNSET
T1 sequence (P05106 27-788, chain 2 of 2): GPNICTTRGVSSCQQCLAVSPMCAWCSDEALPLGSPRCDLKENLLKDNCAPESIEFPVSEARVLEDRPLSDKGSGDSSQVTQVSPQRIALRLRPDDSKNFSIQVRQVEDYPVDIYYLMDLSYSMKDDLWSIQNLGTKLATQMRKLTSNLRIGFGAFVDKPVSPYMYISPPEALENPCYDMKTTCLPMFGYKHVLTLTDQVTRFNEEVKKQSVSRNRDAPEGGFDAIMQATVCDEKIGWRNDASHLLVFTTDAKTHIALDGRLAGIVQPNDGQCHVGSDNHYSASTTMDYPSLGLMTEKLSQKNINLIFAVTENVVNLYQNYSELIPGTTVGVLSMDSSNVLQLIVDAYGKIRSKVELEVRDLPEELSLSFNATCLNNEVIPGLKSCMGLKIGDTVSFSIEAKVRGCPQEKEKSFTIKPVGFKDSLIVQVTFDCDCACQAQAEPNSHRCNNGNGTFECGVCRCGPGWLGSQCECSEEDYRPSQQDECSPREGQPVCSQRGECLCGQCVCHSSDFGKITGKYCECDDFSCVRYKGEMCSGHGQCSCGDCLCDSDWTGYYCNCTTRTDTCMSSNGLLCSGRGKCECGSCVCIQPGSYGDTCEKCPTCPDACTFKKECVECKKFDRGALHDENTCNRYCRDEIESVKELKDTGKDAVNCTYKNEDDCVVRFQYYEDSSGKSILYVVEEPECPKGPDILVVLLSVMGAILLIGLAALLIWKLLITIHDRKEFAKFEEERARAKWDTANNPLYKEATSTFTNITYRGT
Sequence of human αvβ5 integrin (P06756 31-1048, chain 1 of 2): as the sequence (P06756 31-1048, chain 1 of 2) above
Sequence of human αvβ5 integrin (P18084 24-799, chain 2 of 2): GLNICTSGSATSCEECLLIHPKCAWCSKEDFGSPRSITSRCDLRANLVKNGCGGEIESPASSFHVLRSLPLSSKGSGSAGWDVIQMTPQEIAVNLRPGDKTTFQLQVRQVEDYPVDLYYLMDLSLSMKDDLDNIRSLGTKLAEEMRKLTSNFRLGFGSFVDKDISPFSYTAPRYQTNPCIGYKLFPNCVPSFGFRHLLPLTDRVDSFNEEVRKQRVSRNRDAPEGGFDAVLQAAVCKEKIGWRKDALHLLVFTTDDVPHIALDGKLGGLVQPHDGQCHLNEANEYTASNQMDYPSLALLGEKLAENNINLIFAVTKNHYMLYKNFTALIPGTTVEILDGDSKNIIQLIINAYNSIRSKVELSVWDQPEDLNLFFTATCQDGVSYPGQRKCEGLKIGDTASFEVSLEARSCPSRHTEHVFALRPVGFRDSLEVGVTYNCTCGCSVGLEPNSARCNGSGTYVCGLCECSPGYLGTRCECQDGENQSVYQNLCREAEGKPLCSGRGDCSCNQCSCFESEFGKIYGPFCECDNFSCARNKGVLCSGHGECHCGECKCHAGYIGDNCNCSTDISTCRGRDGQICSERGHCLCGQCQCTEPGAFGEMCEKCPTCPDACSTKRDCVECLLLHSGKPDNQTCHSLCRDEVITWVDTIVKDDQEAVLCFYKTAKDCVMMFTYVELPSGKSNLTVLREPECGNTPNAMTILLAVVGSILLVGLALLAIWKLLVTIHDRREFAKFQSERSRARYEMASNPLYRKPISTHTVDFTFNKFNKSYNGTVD
Sequence of mouse αvβ5 integrin (P43406 31-1044, chain 1 of 2): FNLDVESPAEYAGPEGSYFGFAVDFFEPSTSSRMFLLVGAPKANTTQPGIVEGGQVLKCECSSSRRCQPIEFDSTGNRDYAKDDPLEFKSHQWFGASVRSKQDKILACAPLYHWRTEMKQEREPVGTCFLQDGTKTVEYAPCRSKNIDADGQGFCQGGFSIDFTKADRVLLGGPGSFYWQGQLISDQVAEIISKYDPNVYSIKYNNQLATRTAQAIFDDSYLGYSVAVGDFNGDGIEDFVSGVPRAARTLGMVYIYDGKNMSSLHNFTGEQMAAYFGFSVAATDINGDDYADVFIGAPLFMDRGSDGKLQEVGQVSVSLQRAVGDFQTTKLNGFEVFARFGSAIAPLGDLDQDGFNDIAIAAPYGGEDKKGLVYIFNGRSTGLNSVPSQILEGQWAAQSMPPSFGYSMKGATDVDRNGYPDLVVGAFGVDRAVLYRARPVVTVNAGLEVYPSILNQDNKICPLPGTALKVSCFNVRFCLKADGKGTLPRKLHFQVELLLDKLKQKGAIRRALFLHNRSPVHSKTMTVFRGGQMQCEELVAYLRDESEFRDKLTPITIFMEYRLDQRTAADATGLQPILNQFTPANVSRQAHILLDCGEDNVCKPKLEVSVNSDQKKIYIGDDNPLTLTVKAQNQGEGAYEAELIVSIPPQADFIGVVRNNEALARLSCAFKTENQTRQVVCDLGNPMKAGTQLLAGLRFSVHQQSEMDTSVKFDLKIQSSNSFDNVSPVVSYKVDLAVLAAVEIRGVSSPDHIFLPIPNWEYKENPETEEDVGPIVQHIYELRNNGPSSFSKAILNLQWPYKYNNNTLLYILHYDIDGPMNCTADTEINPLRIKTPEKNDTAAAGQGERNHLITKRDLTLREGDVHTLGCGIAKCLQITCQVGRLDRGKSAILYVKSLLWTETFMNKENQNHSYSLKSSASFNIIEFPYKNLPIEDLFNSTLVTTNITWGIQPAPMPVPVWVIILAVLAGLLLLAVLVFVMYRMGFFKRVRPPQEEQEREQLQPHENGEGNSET
Sequence of mouse αvβ5 integrin (O70309 24-798, chain 2 of 2): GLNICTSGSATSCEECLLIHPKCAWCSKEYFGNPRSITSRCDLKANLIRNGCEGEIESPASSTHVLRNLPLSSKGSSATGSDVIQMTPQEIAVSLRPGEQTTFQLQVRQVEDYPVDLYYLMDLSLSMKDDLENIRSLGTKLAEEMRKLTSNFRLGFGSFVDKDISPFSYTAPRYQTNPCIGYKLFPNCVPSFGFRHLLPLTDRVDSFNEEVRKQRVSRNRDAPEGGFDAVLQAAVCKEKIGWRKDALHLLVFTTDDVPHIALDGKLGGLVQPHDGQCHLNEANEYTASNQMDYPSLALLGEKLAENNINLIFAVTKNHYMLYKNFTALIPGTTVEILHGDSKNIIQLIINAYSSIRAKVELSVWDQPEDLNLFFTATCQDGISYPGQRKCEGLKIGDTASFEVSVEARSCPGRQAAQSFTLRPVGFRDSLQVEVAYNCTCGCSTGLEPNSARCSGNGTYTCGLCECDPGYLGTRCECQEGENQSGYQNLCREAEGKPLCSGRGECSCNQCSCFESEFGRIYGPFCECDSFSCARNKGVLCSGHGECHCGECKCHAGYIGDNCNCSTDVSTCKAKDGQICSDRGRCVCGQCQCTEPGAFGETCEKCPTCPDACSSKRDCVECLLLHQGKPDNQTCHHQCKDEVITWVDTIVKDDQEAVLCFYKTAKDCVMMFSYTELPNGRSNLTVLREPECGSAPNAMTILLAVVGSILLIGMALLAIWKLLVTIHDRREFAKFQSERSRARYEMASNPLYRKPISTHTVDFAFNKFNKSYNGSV

Molecule: GST-mS1ED (recombinant mouse Sdc1 ectodomain, amino acids 18-251, expressed as a fusion protein with GST) (from UniProt P18828 18-251)
spreading of mouse aortic endothelial cells on VN [1]: 1 µM
HMEC spreading on VN [2]: 5 µM
IC50, HAEC spreading on VN [2]: 1 µM
IC50, HMEC-1 spreading on VN [2]: 3 to 10 µM
concentration that blocks endothelial cell attachment to VN altogether [2]: 10 µM
percent reduction of HMEC spreading on VN at 1 µM mS1ED [2]: > 80%
percent reduction of HMEC spreading on VN at 3 µM mS1ED [2]: > 90%
HMEC spreading on VN [3]: 5 µM
IC50, HAEC spreading on VN [3]: 1 µM
IC50, HMEC-1 spreading on VN [3]: 3 to 10 µM
concentration that blocks endothelial cell attachment to VN altogether [3]: 10 µM
percent reduction of HMEC spreading on VN at 1 µM mS1ED [3]: > 80%
percent reduction of HMEC spreading on VN at 3 µM mS1ED [3]: > 90%
spreading of mouse aortic endothelial cells on VN [4]: 1 µM

B2: hSSTN 89-120 (amino acids 89-120 of the human Sdc1 sequence) (peptide)
peptide: STSTLPAGEGPKEGEAVVLPEVEPGLTAREQE
IC50, MDA-MB-231 attachment and spreading on VN [3]: 0.1 to 0.3 µM

B4: SSTN88-117 (30-mer) (peptide)
peptide: FTSVLPAGEKPEEGEPVLHVEAEPGFTARD
fold less active, HMEC-1 attachment and spreading on VN [2]: 3 fold
fold less active, HMEC-1 attachment and spreading on VN [3]: 3 fold

B5: hSSTN 88-121 (amino acids 88-121 of the human Sdc1 sequence) (peptide)
peptide: ASTSTLPAGEGPKEGEAVVLPEVEPGLTAREQEA
IC50, MDA-MB-231 attachment and spreading on VN [3]: 0.1 to 0.3 µM

Second part, the molecule after the results:

IC50, B82L fibroblast spreading on VN [1]: ~0.1 µM
IC50, HMEC-1 spreading on VN [2]: ~0.1 µM
fold lower concentration than mS1ED for equal inhibition, endothelial cells on VN [2]: 10 fold
IC50, HMEC-1 spreading on VN [3]: ~0.1 µM
IC50, MDA-MB-231 spreading on VN [3]: ~0.1 µM
fold lower concentration than mS1ED for equal inhibition, endothelial cells on VN [3]: 10 fold
B1: synstatin82-130 (SSTN82-130, 49-mer, amino acids 82-130 of mouse Sdc-1) (peptide)
peptide: SNTETAFTSVLPAGEKPEEGEPVLHVEAEPGFTARDKEKEVTTRPRETV

binding result [5]: no binding
B3: mouse syndecan-1 mutant bearing deletion of amino acids 67-121 (receptor, UniProt P18828 23-311, looked up)
chain: QIVAVNVPPEDQDGSGDDSDNFSGSGTGALPDTLSRQTPSTWKDVTTRPRETVQLPITQRASTVRVTTAQAAVTSHPHGGMQPGLHETSAPTAPGQPDHQPPRVEGGGTSVIKEVVEDGTANQLPAGEGSGEQDFTFETSGENTAVAAVEPGLRNQPPVDEGATGASQSLLDRKEVLGGVIAGGLVGLIFAVCLVAFMLYRMKKKDEGSYSLEEPKQANGGAYQKPTKQEEFYA
notes: whole, on cells; also called mouse mutant lacking the active site

From patent publication US20080020979A1 (WISCONSIN ALUMNI RESEARCH FOUNDATION, published 2008)
